Data from US20240166702A1 (published 2024).

Target: EGFR kinase domain (UniProt P00533 696-1022, fluorescent dye attached through the His-tag)
Assay: MST

Kd: 2900 nM
B1: Sorting Nexin 1 (SNX1) Bar domain (other)
chain: MNESDIWFEEKLQEVECEEQRLRKLHAVVETLVNHRKELALNTAQFAKSLAMLGSSEDNTALSRALSQLAEVEEKIEQLHQEQANNDFFLLAELLSDYIRLLAIVRAAFDQRMKTWQRWQDAQATLQKKREAEARLLWANKPDKLQQAKDEILEWESRVTQYERDFERISTVVRKEVIRFEKEKSKDFKNHVIKYLETLLYSQQQLAKYWEAFLPEAKAIS
